Experimental data published in patent US7018846 (SCIENCE AND TECHNOLOGY CORPORATION UNM, dated 2006).
No end group written: not given here. *: point of attachment. For = O=C*

Target: T1, C-terminally His-tagged N-formyl peptide receptor (UniProt P21462 1-350)
T1 construct: Expressed in transfected U937 cells; also called C-His FPR; His6 FPR
T1 sequence: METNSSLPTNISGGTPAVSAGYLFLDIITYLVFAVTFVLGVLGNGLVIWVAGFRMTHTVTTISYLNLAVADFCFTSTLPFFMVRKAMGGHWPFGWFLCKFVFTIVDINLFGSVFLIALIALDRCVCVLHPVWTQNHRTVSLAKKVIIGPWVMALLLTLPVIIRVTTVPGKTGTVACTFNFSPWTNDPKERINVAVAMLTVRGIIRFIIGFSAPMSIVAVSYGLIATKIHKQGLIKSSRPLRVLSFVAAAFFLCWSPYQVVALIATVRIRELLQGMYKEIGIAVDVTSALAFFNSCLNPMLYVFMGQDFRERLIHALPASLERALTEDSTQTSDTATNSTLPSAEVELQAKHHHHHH
Assay: flow cytometry; fMLFK-FITC on C-His FPR silica particles, optimal receptor input

fluorescent ligand signal to background ratio: ≥ 30 ratio (x:1)
B1: formyl-met-leu-phe-lys-FITC (peptide)
peptide: For-MLFK
modifications: also: FITC label, attachment site not given here
notes: Bought from Peninsula Laboratories; also called fMLFK-FITC; fluorescent formyl peptide
